Where two headings read alike, the source gives them in different places.

Holding throughout (assay): cell-based or functional assay
Assay [1] has as its target IVIg (Octagam).
Assay [2] addresses IVIg (Octagam). This is another data set of the same source.
The target of another assay is denosumab (XGEVA).
The target of a further assay is adalimumab (Humira).

In the assay with IVIg (Octagam) [1], “BX1001865 (IdeS lacking tag, produced to GMP standard) (enzyme)” gave a Conc. of enzyme, 2nd IgG heavy chain, scIgG to F(ab')2 (gel) of 6000 ng/mL; an enzyme concentration giving a dominating scIgG band on SDS-PAGE of 1.9 ng/mL; an enzyme concentration giving mainly scIgG on SDS-PAGE of 1.9 ng/mL. In the assay with IVIg (Octagam) [2], this substance had a Conc. of enzyme, 1st IgG heavy chain, IgG to scIgG (gel) of 1900 ng/mL and a Conc. of enzyme, 2nd IgG heavy chain, scIgG to F(ab')2 (gel) of 7500 ng/mL.
For “pCART124 (IdeS with additional N terminal methionine and histidine tag) (enzyme)”, in the assay with IVIg (Octagam) [1], the Conc. of enzyme, 2nd IgG heavy chain, scIgG to F(ab')2 (gel) was 6000 ng/mL and the enzyme concentration giving a dominating scIgG band on SDS-PAGE is 1.9 ng/mL. In the assay with IVIg (Octagam) [2], this substance displayed a Conc. of enzyme, 1st IgG heavy chain, IgG to scIgG (gel) of 1900 ng/mL and a Conc. of enzyme, 2nd IgG heavy chain, scIgG to F(ab')2 (gel) of 7500 ng/mL.
“pCART144 (IdeZ with additional N terminal methionine and histidine tag) (enzyme)” yielded an enzyme concentration giving a dominating F(ab')2 band on SDS-PAGE in the assay with denosumab (XGEVA) of 3.3 µg/mL. In the assay with denosumab (XGEVA) (scale: pig/ml), this substance displayed an enzyme concentration giving a single intense scIgG band on SDS-PAGE of 0.12. The substance further returned an enzyme concentration giving equal cleavage on SDS-PAGE with adalimumab (Humira) of 4.6 ng/mL.

These data come from US20200179497A1.
